We go through four molecules from patent US20200123260A1.

Test [1] deals with hTrkC in the SHC1 recruitment assay (U2OS, Discoverx Pathhunter) (human) (UniProt Q16288). The experiment in a line: cell-based or functional assay.
For test [2], the target named is hTrkA in the SHC1 recruitment assay (U2OS, Discoverx Pathhunter) (human) (UniProt P04629). The experiment in a line: cell-based or functional assay.
Test [3] deals with hTrkB-a isoform fused to a small peptide epitope, in U2OS cells (Discoverx Pathhunter) (human) (UniProt Q16620). The test is described as follows: cell-based or functional assay.
Chain of hTrkB-a isoform fused to a small peptide epitope, in U2OS cells (Discoverx Pathhunter) (human) (Q16620 32-822): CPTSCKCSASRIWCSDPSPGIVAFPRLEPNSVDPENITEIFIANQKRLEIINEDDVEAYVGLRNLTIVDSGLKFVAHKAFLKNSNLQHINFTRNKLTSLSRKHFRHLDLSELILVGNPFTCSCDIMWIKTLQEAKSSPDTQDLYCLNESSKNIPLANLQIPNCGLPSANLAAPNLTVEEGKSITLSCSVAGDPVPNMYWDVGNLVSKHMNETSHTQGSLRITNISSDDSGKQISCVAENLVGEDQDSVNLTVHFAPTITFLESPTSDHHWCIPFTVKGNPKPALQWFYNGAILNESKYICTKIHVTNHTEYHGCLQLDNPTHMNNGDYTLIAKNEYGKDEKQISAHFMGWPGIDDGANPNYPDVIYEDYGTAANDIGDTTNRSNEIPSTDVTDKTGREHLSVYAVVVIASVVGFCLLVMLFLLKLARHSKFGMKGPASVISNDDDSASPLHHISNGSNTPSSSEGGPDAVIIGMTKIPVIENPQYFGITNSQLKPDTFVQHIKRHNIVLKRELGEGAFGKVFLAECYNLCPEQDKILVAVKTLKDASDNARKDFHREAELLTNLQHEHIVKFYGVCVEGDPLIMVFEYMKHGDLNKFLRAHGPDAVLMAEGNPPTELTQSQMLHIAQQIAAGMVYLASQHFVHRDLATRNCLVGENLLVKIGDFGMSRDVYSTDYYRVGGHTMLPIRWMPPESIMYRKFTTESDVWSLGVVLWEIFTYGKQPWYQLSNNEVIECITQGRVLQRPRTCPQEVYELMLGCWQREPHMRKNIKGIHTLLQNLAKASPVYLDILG
Test [4] addresses human TrkC (open reading frame from NM_001012338.1) in HEK-293 cells (human) (UniProt Q16288). The experiment in a line: cell-based or functional assay.
For test [5], the target named is TrkB, Dog (Canis familiaris, XM_851329) on 293 cells (dog (Canis familiaris)). The experiment in a line: cell-based ELISA on transfected 293 cells.
Chain of TrkB, Dog (Canis familiaris, XM_851329) on 293 cells (dog (Canis familiaris)) (Q16620 other isoform, or with tags, fused parts or gaps limits assumed): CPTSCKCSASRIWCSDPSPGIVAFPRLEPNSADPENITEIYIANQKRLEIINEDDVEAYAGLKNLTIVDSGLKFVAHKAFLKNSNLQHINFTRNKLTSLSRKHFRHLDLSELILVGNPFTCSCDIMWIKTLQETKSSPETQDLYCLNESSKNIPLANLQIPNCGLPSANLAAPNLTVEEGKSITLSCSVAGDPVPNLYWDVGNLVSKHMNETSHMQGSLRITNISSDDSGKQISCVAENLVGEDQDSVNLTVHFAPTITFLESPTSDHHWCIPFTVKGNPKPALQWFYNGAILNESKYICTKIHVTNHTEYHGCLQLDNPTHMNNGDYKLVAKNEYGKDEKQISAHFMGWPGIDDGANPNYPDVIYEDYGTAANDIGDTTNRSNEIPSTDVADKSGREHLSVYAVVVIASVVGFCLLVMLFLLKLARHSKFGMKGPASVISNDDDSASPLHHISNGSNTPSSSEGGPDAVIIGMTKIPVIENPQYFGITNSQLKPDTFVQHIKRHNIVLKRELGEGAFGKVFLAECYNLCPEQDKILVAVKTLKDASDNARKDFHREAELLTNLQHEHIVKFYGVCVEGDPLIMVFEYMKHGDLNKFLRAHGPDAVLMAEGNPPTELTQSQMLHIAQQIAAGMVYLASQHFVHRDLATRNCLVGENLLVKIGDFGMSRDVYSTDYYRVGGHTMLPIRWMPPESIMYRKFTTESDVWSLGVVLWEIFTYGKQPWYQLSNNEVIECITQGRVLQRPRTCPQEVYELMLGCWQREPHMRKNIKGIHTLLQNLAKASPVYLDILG
Test [6] has the same target. The test is described as follows: cell-based ELISA on transiently transfected HEK293 cells.

Chain of hTrkC in the SHC1 recruitment assay (U2OS, Discoverx Pathhunter) (human) (Q16288 32-839): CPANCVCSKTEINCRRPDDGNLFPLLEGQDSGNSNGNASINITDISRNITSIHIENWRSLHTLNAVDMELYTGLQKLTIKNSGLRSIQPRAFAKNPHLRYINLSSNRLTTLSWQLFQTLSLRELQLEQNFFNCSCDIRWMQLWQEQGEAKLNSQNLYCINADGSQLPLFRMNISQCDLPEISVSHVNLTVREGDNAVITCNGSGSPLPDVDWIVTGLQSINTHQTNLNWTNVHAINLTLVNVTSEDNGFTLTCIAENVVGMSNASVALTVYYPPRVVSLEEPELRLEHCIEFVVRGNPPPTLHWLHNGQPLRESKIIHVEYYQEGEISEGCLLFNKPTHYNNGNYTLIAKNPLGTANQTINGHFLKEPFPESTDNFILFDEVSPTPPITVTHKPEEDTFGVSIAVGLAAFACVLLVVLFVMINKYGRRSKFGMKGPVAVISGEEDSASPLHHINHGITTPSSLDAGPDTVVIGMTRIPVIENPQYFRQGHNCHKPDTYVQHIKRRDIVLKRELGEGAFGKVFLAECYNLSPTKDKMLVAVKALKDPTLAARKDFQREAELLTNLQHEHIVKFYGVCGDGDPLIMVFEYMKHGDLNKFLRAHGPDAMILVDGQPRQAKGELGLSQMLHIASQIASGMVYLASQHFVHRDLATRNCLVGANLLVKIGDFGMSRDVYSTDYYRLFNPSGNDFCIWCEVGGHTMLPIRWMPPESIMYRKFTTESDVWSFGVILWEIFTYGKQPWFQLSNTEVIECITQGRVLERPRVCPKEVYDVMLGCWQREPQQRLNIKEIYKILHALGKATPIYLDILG
Chain of hTrkA in the SHC1 recruitment assay (U2OS, Discoverx Pathhunter) (human) (P04629 33-796): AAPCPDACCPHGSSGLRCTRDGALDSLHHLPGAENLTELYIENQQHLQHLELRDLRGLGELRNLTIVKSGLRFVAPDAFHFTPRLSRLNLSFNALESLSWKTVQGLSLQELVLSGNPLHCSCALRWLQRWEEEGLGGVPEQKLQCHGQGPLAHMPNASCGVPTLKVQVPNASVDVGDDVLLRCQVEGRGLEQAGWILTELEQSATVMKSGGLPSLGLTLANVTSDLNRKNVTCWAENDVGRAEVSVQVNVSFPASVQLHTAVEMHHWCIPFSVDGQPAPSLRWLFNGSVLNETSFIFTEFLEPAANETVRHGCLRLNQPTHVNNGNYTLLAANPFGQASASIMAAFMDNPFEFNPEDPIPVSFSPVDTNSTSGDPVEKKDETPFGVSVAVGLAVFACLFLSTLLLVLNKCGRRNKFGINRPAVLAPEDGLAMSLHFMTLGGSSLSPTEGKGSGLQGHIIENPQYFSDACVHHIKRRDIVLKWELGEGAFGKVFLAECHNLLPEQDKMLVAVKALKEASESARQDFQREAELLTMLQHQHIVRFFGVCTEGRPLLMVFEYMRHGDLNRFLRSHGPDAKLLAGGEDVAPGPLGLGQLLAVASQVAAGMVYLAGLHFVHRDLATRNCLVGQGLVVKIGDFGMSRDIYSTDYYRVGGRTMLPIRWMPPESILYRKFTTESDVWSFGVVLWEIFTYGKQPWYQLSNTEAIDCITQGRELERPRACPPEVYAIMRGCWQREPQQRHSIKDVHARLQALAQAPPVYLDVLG
Chain of human TrkC (open reading frame from NM_001012338.1) in HEK-293 cells (human) (Q16288 32-839): as the sequence (Q16288 32-839) above

B1: NT3 (R&D267N3) (ligand, UniProt P20783 139-257, looked up, species assumed)
Neurotrophin-3: YAEHKSHRGEYSVCDSESLWVTDKSSAIDIRGHQVTVLGEIKTGNSPVKQYFYETRCKEARPVKNGCRGIDDKHWNSQCKTSQTYVRALTSENNKLVGWRWIRIDTSCVCALSRKIGRT
modifications: Neurotrophin-3
On to B1, for which the values for the EC50, SHC1 recruitment assay in test [1], in test [2] and in test [3] were 0.86 nM, 1.49 nM and 0.5 nM, respectively. Moreover, the Fold-increase, SHC1 recruitment assay in test [1] came to 10.5 fold; in test [2], 9.2 fold; in test [3], 7.7 fold. For the same molecule, the Cre-luciferase reporter, fold increase in test [4] was 2.9 fold.

B2: TAM-163 (huTOA-1 v1.0/1.4) (antibody, human IgG1, kappa, V domains shown)
VH: EVQLVESGGGLVQPGGSLRLSCAASGYSFTAYFMNWVRQAPGKGLEWVARINPNNGDTFYTQKFKGRFTISRDNAKNSLYLQMNSLRAEDTAVYYCARRDYFGAMDYWGQGTLVTVSS
VL: DIQMTQSPSSLSASVGDRVTITCRASQTISNNLHWYQQKPGKAPKLLIKSASLAISGVPSRFSGSGSGTDFTLTISSLQPEDFATYYCQQSNSWPNTFGGGTKVEIKR
The term EC50 denotes the concentration needed to bring the measured effect to its halfway point. B2: the EC50 in test [5] was found to be 0.55 nM; in test [6], 0.94 nM.

B3: NT-4 (ligand, UniProt P34130 81-210, looked up, species assumed)
Neurotrophin-4: GVSETAPASRRGELAVCDAVSGWVTDRRTAVDLRGREVEVLGEVPAAGGSPLRQYFFETRCKADNAEEGGPGAGGGGCRGVDRRHWVSECKAKQSYVRALTADAQGRVGWRWIRIDTACVCTLLSRTGRA
modifications: Neurotrophin-4
B3: the Fold-increase, SHC1 recruitment assay in test [1] is 1.1 fold; in test [2], 9 fold; in test [3] it was 6.1 fold. For the same molecule, the EC50, SHC1 recruitment assay came to 0.43 nM in test [2] and 0.33 nM in test [3].

B4: mouse TOA-1 antibody (antibody, mouse IgG1, V domains shown)
VH: EVQLQQSGPELVKPGASMKISCKTSGYSFTAYFMNWVKQSHGKSLEWIGRINPNNGDTFYTQKFKGKATLTVDKSSNTAHMELLSLTSEDSAIYYCGRRDYFGAMDYWGQGTSVTVSS
VL: AIVLIQSPATLSVTPGDSVSLSCRASQTISNNLHWYQQKSHESPRLLIKSASLAISGIPSRFSGSGSGTDFTLSISSVETEDFGMYFCQQSNSWPNTFGGGTKLEIK
B4: the EC50 in test [5] stood at 0.65 nM.
